The source of these data is patent publication US20210347908A1 (ELPISCIENCE SUZHOU BIOPHARMA, published 2021).

Usually IC50 stands for the concentration that gives 50% inhibition. The term EC50 denotes the concentration giving half of the maximal effect.

Some results are limits rather than exact numbers.

The target in experiment [1] is T1, biotin labeled soluble human SIRPα v1 ECD recombinant protein (human, UniProt P78324 31-373, biotin labeled).
T1 construct: extracellular domain
As to the kind of experiment: competitive ELISA, biotin-SIRPα v1 ECD to coated CD47 ECD. The method, then: Competitive ELISA assay was used to determine whether the purified hybridoma antibodies can block CD47 and SIRPα interaction or CD47 and SIRPγ interaction. Briefly, for CD47 and SIRPα interaction blocking activity detection, antibody and biotin labeled soluble human SIRPα v1 ECD recombinant protein were co-incubated with ELISA microplate coated human CD47 ECD recombinant protein.
For CD47 and SIRPγ interaction blocking activity detection, antibody and biotin labeled soluble human CD47 ECD recombinant protein were co-incubated with ELISA microplate coated human SIRPγ ECD recombinant protein. After washing, horseradish peroxidase labeled streptavidin (HRP-SA, Sigma) was added and incubated at 37° C. for 1 hour. Then, 100 μl/well of TMB solution (Biotechnology) was added. After incubation for 15 minutes at room temperature, the reaction was stopped by the addition of 50 μl of 1N HCl. OD 450 nm was read. Blocking ratio and IC₅₀ was calculated. In comparison with other known anti-SIRPα antibodies, 022, 050, 055, and 074 cannot block CD47 and SIRPα interaction. In particular, all of the antibodies of the invention cannot block CD47 and SIRPγ interaction.
Background: An ELISA detects its analyte on a solid surface through an enzyme-linked reagent.

In experiment [2] the target is T1, biotin labeled soluble human SIRPα v1 …. Put plainly: competitive ELISA; competitor 060. The method, then:
Competitive ELISA assay was used for epitope binning of 9 functional antibodies. Briefly excessive competitor antibody and biotin labeled soluble human SIRPα v1 ECD recombinant protein were co-incubated with ELISA microplate coated antibody. After washing, HRP-SA was added and incubated at 37° C. for 1 hour. Then, […] of TMB solution (Biotechnology) was added. After incubation for 15 minutes at room temperature, the reaction was stopped by the addition of […] of 1N HCl. OD 450 nm was read. Competition ratio was calculated. The antibodies that can compete each other for binding to SIRPα have the similar binding epitope.

The target in experiment [3] is T2, Fc tagged human SIRPβ ECD recombinant protein (human, UniProt O00241 30-371).
T2 construct: range 1-371; cloned range includes the signal peptide; also called hSIRPβ; not shown: human IgG Fc region (hFc) of the pCPC vector
Put plainly: ELISA. A digest of the protocol: (§1)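 Coated antigen + antibody, 37° C. 1 h; wash; HRP anti-mouse or anti-human IgG, 37° C. 1 h; TMB 15 min RT; stop 1N HCl; OD450; EC₅₀.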

Experiment [4] addresses T3, Fc tagged human SIRPα v2 ECD recombinant protein (human).
T3 construct: range 1-369; cloned range M1-R369 includes the signal peptide; also called hSIRPα V2
Put plainly: ELISA. A digest of the protocol: as §1

In experiment [5] the target is T4, full length cyno SIRPα stably expressed on CHOK1 cells (cynomolgus monkey, UniProt A0A2K5VYQ9 31-507).
T4 construct: whole, on cells; also called CHOK1-cyno SIRPα-2A2 cells; CHOK1-cyno SIRPα
T4 sequence: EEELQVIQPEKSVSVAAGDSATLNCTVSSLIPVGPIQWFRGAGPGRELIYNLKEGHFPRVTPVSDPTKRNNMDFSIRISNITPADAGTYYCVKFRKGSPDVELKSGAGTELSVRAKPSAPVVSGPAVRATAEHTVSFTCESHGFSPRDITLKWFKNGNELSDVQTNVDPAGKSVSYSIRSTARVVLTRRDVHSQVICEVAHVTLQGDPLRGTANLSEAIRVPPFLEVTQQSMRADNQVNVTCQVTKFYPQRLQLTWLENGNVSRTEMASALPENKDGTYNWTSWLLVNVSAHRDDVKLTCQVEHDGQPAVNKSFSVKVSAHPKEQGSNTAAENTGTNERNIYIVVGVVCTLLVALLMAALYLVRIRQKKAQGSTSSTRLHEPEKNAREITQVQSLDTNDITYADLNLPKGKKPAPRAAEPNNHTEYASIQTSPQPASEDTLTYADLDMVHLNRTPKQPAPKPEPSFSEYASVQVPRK
Put plainly: FACS on CHOK1 cells. A digest of the protocol:
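Antibodies bound to 2×10⁵ CHOK1 cells stably expressing full-length SIRPα, 1 h at 4 °C, then fluorescent anti-mouse or anti-human IgG secondary, 1 h at 4 °C. EC50 derived from geometric median fluorescence intensity.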

B1: reference antibody KWAR23 (antibody, V domains shown)
VH: EVQLQQSGAELVKPGASVKLSCTASGFNIKDYYIHWVQQRTEQGLEWIGRIDPEDGETKYAPKFQDKATITADTSSNTAYLHLSSLTSEDTAVYYCARWGAYWGQGTLVTVSS
VL: QIVLTQSPAIMSASPGEKVTLTCSASSSVSSSYLYWYQQKPGSSPKLWIYSTSNLASGVPARFSGSGSGTSYSLTISSMEAEDAASYFCHQWSSYPRTFGAGTKLELK
Take B1: the IC50 in experiment [1] came out at 0.6 nM. Also, the “% Competition” value in experiment [2] is 5%. For the same molecule, the values for the concentration giving a half-maximal response (EC50) in experiment [3] and in experiment [4] were 0.08 nM and 0.09 nM, respectively.

B2: Antibody 060 (hybridoma antibody) (antibody, V domains shown)
VH: QVQLKESGPGLVAPSESLSITCTVSGFSLTNYDISWIRQSPGKGLEWLGVIWTGGDTNFNSAFMSRLSISKDKSKSQVFLKLNSLQTDDTAIYYCVRVQYFGGSYGPMDYWGQGISVTVSS
VL: DIQMTQASSYLSVSLGGRVTITCEASDHINDWLAWYQQTPGNAPRLLISGATSLETGVPSRFSGSGSGKDYTLSITSLQTEDIATYYCQQYWNTPLTFGAGTRLELK
notes: mouse hybridoma antibody
B2: the IC50 in experiment [1] is over 1000 nM. Besides, the “% Competition” value in experiment [2] came out at 93%.

B3: Antibody 032 (hybridoma antibody) (antibody, V domains shown)
VH: EVRLEESGGGLVQPGGSMKLSCVVSGFTFRNYWMNWVRQSPERGLEWIAEITLKSNTYATHYAESVKGRFAISRDDSKSSFYLQMNDLRPEDTGIYYCTTFTKVVADWHLDVWGAGTTVTVSS
VL: DVLMTQTPLSLPVNLGDQASISCRSSQNIVHSNGNTYLEWYLQKPGQSPKLLIYKVSNRFSGVPDRFSGSGSGTDFTLRISRVEAEDLGVYYCFQGSHVPFTFGSGTKLEIK
notes: mouse hybridoma antibody
Take B3: the 50% inhibitory concentration (IC50) in experiment [1] came to 0.2 nM. Besides, the “% Competition” value in experiment [2] is 7%.

B4: Antibody 035 (hybridoma antibody) (antibody, V domains shown)
VH: QIQLVQSGPELRKPGETVKISCKASGYSFTNYAMNWVKQAPGKVLKWMGFINTYTGEPTYADDFKGRFAFSLETSASTAYLQINNLKNEDTATYFCTRTRGYYDFDGGAFDYWGQGTSLTVSS
VL: DIVMTQSQKFMSTSIGDRVSVTCKASQNVGTHLAWYQQKPGQSPKALIFSASYRYIGVPDRFTGSGSGTDFTLTITNVQSEDLAEYFCQQYNTYPLTFGAGTKLELK
notes: mouse hybridoma antibody
For the molecule B4, in experiment [1], the half-inhibitory concentration (IC50) is 4.9 nM. Moreover, the “% Competition” value in experiment [2] was -1%.

B5: reference antibody HEFLB (antibody, V domains shown)
VH: EVQLVQSGAEVKKPGESLRISCKASGYSFTSYWVHWVRQMPGKGLEWMGNIDPSDSDTHYSPSFQGHVTLSVDKSISTAYLQLSSLKASDTAMYYCVRGGTGTLAYFAYWGQGTLVTVSS
VL: DVVMTQSPLSLPVTLGQPASISCRSSQSLVHSYGNTYLYWFQQRPGQSPRLLIYRVSNRFSGVPDRFSGSGSGTDFTLKISRVEAEDVGVYYCFQGTHVPYTFGGGTKVEIK
Turning to B5, in experiment [1], the IC50 amounted to 0.5 nM. In addition, in experiment [2], the “% Competition” value is 7%. Moreover, the EC50 in experiment [3] worked out at 0.08 nM.

B6: reference antibody 29-AM4-5 (antibody, V domains shown)
VH: EVQLVESGGGLVQPGGSLRLSCAASGFNISYYFIHWVRQAPGKGLEWVASVYSSFGYTYYADSVKGRFTISADTSKNTAYLQMNSLRAEDTAVYYCARFTFPGLFDGFFGAYLGSLDYWGQGTLVTVSS
VL: DIQMTQSPSSLSASVGDRVTITCRASQSVSSAVAWYQQKPGKAPKLLIYSASSLYSGVPSRFSGSRSGTDFTLTISSLQPEDFATYYCQQAVNWVGALVTFGQGTKVEIK
For B6, the IC50 in experiment [1] was determined as 1.4 nM. Further, in experiment [2], the “% Competition” value came to 10%. Further, the “MFI at 10 nM” value in experiment [5] turned out to be 27600 MFI. The EC50 in experiment [3] and in experiment [4] was 0.08 nM in each case.
